Stoichiometry N data for one substance are collected here from PMC13013481.

This assay concerns the target RSV G central conserved cysteine-rich region peptide (Gpep, residues 149-196) (respiratory syncytial virus strain A2). As to the kind of experiment: Tricine SDS-PAGE, non-reducing and reducing; 16% Tricine SDS-PAGE of concentrated Gpep, with or without β-mercaptoethanol and with or without heat denaturation.

As to “RSV G central conserved cysteine-rich region peptide (Gpep, residues 149-196)”, the stoichiometry N – broadly, the number of molecules, sites or subunits per partner or assembly – came to 2.
